Assay [1] has as its target human GAL9 of the human PBMC cultures (human). As to the kind of experiment: cell-based or functional assay.
Assay [2] has the same target. Kind of assay: cell-based or functional assay. The source holds these as a separate data set.
The target in assay [3] is Human GAL9 protein (Acro Biosystems, Human Gal9 His-tag Cat #LG9-H5244) (human). As to the kind of experiment: Octet BLI, IgG1 immobilised on biosensor, GAL9 analyte dilution series, global fit (monovalent affinity).
Sequence of Human GAL9 protein (Acro Biosystems, Human Gal9 His-tag Cat #LG9-H5244) (human) (chain, as listed by the source): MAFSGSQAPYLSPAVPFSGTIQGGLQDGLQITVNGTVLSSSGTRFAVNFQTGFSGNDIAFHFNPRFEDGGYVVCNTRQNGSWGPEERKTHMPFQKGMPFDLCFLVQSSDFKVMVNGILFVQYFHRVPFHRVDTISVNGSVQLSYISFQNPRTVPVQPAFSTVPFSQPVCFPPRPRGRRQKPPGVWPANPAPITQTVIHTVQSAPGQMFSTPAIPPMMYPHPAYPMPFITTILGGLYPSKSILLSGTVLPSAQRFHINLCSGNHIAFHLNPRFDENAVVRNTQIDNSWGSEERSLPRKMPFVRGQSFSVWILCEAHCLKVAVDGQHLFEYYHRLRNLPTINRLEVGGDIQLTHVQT

This is an account of results in patent US20220227873A1 (COUNCIL OF THE QUEENSLAND INSTITUTE OF MEDICAL RESEARCH, published 2022).

B1: P9-11 (antibody, IgG1, V domains shown)
VH: EVQLVESGGGLVQPGGSLRLSCAASGFTFSSYYIHWVRQAPGKGLEWVAYISPSGGYTYYADSVKGRFTISADTSKNTAYLQMNSLRAEDTAVYYCARGAVLYSSAMDYWGQGTLVTVSS
VL: DIQMTQSPSSLSASVGDRVTITCRASQSVSSAVAWYQQKPGKAPKLLIYSASSLYSGVPSRFSGSRSGTDFTLTISSLQPEDFATYYCQQYYPSPSTFGQGTKVEIKR
notes: Tested as bivalent monospecific native human full-length IgG1; also called ABS clone P9-11
On to B1, for which, in assay [1], the “INF-γ 72 hr, Fold change, Average” value is 0.68 fold; the “INF-γ 72 hr, Fold change, Donor 19” value was found to be 0.99 fold; the “INF-γ 72 hr, Fold change, Donor 25” value worked out at 0.52 fold; the “INF-γ 72 hr, Fold change, Donor 27” value came out at 0.53 fold. In assay [1], the “INF-γ 72 hr, Fold change, as %” value was 68.2%; the “INF-γ 72 hr, pg/ml, Donor 19 (HCMV-peptide stimulated PBMCs)” value worked out at 5890 pg/mL; the “INF-γ 72 hr, pg/ml, Donor 25 (HCMV-peptide stimulated PBMCs)” value came out at 23000 pg/mL; the “INF-γ 72 hr, pg/ml, Donor 27 (HCMV-peptide stimulated PBMCs)” value was 891 pg/mL. In assay [2], the “TNF-α 72 hr, Fold change, Average” value worked out at 0.64 fold; the “TNF-α 72 hr, Fold change, Donor 19” value is 0.78 fold; the “TNF-α 72 hr, Fold change, Donor 25” value is 0.76 fold; the “TNF-α 72 hr, Fold change, Donor 27” value was 0.4 fold. In addition, in assay [2], the “TNF-α 72 hr, Fold change, as %” value amounted to 64.7%; the “TNF-α 72 hr, pg/ml, Donor 19 (HCMV-peptide stimulated PBMCs)” value was 607 pg/mL; the “TNF-α 72 hr, pg/ml, Donor 25 (HCMV-peptide stimulated PBMCs)” value was 982 pg/mL; the “TNF-α 72 hr, pg/ml, Donor 27 (HCMV-peptide stimulated PBMCs)” value stood at 374 pg/mL. Also, binding in assay [3] was put at a Kd of 6.55 nM.

B2: P9-34 (antibody, IgG1, V domains shown)
VH: EVQLVESGGGLVQPGGSLRLSCAASGFTFSTYFIHWVRQAPGKGLEWVAYIYPQGGYTYYADSVKGRFTISADTSKNTAYLQMNSLRAEDTAVYYCARQSYPGVFDYWGQGTLVTVSS
VL: DIQMTQSPSSLSASVGDRVTITCRASQSVSSAVAWYQQKPGKAPKLLIYSASSLYSGVPSRFSGSRSGTDFTLTISSLQPEDFATYYCQQWTIALTTFGQGTKVEIKR
For B2, in assay [1], the “INF-γ 72 hr, Fold change, Average” value amounted to 0.88 fold; the “INF-γ 72 hr, Fold change, Donor 25” value came to 1.01 fold; the “INF-γ 72 hr, Fold change, Donor 27” value was 0.74 fold; the “INF-γ 72 hr, Fold change, as %” value was found to be 87.6%. In addition, in assay [1], the “INF-γ 72 hr, pg/ml, Donor 25 (HCMV-peptide stimulated PBMCs)” value was 44400 pg/mL and the “INF-γ 72 hr, pg/ml, Donor 27 (HCMV-peptide stimulated PBMCs)” value was found to be 1050 pg/mL. In addition, in assay [2], the “TNF-α 72 hr, Fold change, Average” value was 0.74 fold; the “TNF-α 72 hr, Fold change, Donor 25” value came out at 0.68 fold; the “TNF-α 72 hr, Fold change, Donor 27” value stood at 0.79 fold; the “TNF-α 72 hr, Fold change, as %” value is 73.7%. In assay [2], the “TNF-α 72 hr, pg/ml, Donor 25 (HCMV-peptide stimulated PBMCs)” value amounted to 874 pg/mL and the “TNF-α 72 hr, pg/ml, Donor 27 (HCMV-peptide stimulated PBMCs)” value is 596 pg/mL.

B3: P9-25 (antibody, IgG1, V domains shown)
VH: EVQLVESGGGLVQPGGSLRLSCAASGFTFSSYYIHWVRQAPGKGLEWVASIYPYGSYTYYADSVKGRFTISADTSKNTAYLQMNSLRAEDTAVYYCARLGYSSGMDYWGQGTLVTVSS
VL: DIQMTQSPSSLSASVGDRVTITCRASQSVSSAVAWYQQKPGKAPKLLIYSASSLYSGVPSRFSGSRSGTDFTLTISSLQPEDFATYYCQQWAPDLTTFGQGTKVEIKR
notes: Tested as bivalent monospecific native human full-length IgG1; also called ABS clone P9-25
Take B3: the Kd (in general, the constant that tells how readily two partners part at equilibrium) in assay [3] is 3.48 nM.

B4: P9-37 (antibody, IgG1, V domains shown)
VH: EVQLVESGGGLVQPGGSLRLSCAASGFTFWKYGIHWVRQAPGKGLEWVAYIYPAGGITSYADSVKGRFTISADTSKNTAYLQMNSLRAEDTAVYYCARSDYYSGMGMDYWGQGTLVTVSS
VL: DIQMTQSPSSLSASVGDRVTITCRASQSVSSAVAWYQQKPGKAPKLLIYSASSLYSGVPSRFSGSRSGTDFTLTISSLQPEDFATYYCQQYYPSPSTFGQGTKVEIKR
notes: Tested as bivalent monospecific native human full-length IgG1; also called ABS clone P9-37
Turning to B4, in assay [1], the “INF-γ 72 hr, Fold change, Average” value is 0.55 fold; the “INF-γ 72 hr, Fold change, Donor 19” value came out at 0.55 fold; the “INF-γ 72 hr, Fold change, as %” value was found to be 54.6%; the “INF-γ 72 hr, pg/ml, Donor 19 (HCMV-peptide stimulated PBMCs)” value was determined as 3230 pg/mL. In assay [2], the “TNF-α 72 hr, Fold change, Average” value worked out at 0.55 fold; the “TNF-α 72 hr, Fold change, Donor 19” value turned out to be 0.55 fold; the “TNF-α 72 hr, Fold change, as %” value was found to be 55.2%; the “TNF-α 72 hr, pg/ml, Donor 19 (HCMV-peptide stimulated PBMCs)” value is 429 pg/mL. In assay [3], the Kd was found to be 4.54 nM.

B5: P9-24 (antibody, IgG1, V domains shown)
VH: EVQLVESGGGLVQPGGSLRLSCAASGFTFSSYFIHWVRQAPGKGLEWVASIYPTSHSTSYADSVKGRFTISADTSKNTAYLQMNSLRAEDTAVYYCARLGYPGVMDYWGQGTLVTVSS
VL: DIQMTQSPSSLSASVGDRVTITCRASQSVSSAVAWYQQKPGKAPKLLIYSASSLYSGVPSRFSGSRSGTDFTLTISSLQPEDFATYYCQQVDSRLATFGQGTKVEIKR
notes: Tested as bivalent monospecific native human full-length IgG1; also called ABS clone P9-24
With B5, in assay [1], the “INF-γ 72 hr, Fold change, Average” value was 0.8 fold; the “INF-γ 72 hr, Fold change, Donor 25” value worked out at 0.82 fold; the “INF-γ 72 hr, Fold change, Donor 27” value came to 0.78 fold; the “INF-γ 72 hr, Fold change, as %” value was found to be 87.6%. Moreover, in assay [1], the “INF-γ 72 hr, pg/ml, Donor 25 (HCMV-peptide stimulated PBMCs)” value came out at 35700 pg/mL and the “INF-γ 72 hr, pg/ml, Donor 27 (HCMV-peptide stimulated PBMCs)” value turned out to be 1260 pg/mL. In assay [2], the “TNF-α 72 hr, Fold change, Average” value worked out at 0.54 fold; the “TNF-α 72 hr, Fold change, Donor 25” value is 0.75 fold; the “TNF-α 72 hr, Fold change, Donor 27” value worked out at 0.32 fold; the “TNF-α 72 hr, Fold change, as %” value came to 53.5%. For the same molecule, in assay [2], the “TNF-α 72 hr, pg/ml, Donor 25 (HCMV-peptide stimulated PBMCs)” value stood at 962 pg/mL and the “TNF-α 72 hr, pg/ml, Donor 27 (HCMV-peptide stimulated PBMCs)” value came out at 299 pg/mL. For the same molecule, the Kd in assay [3] was 5.41 nM.

B6: P9-50 (antibody, IgG1, V domains shown)
VH: EVQLVESGGGLVQPGGSLRLSCAASGFTFSSYVIHWVRQAPGKGLEWVALIYSSGGYTQYADSVKGRFTISADTSKNTAYLQMNSLRAEDTAVYYCARVGTTYPSRYLEALDYWGQGTLVTVSS
VL: DIQMTQSPSSLSASVGDRVTITCRASQSVSSAVAWYQQKPGKAPKLLIYSASSLYSGVPSRFSGSRSGTDFTLTISSLQPEDFATYYCQQFGSSLPTFGQGTKVEIKR
notes: Tested as bivalent monospecific native human full-length IgG1; Heavy chain copied as printed: it ends 'SLSPG' without the last K; also called ABS clone P9-50
On to B6, for which, in assay [3], the Kd amounted to 1.21 nM.

B7: P9-57 (antibody, IgG1, V domains shown)
VH: EVQLVESGGGLVQPGGSLRLSCAASGFTFSSYYIHWVRQAPGKGLEWVATIYPSGGYTYYADSVKGRFTISADTSKNTAYLQMNSLRAEDTAVYYCARYSYPGVLDYWGQGTLVTVSS
VL: DIQMTQSPSSLSASVGDRVTITCRASQSVSSAVAWYQQKPGKAPKLLIYSASSLYSGVPSRFSGSRSGTDFTLTISSLQPEDFATYYCQQSSSFLWTFGQGTKVEIKR
notes: Tested as bivalent monospecific native human full-length IgG1; also called ABS clone P9-57
As for B7, in assay [1], the “INF-γ 72 hr, Fold change, Average” value is 0.83 fold; the “INF-γ 72 hr, Fold change, Donor 19” value worked out at 0.83 fold; the “INF-γ 72 hr, Fold change, as %” value came out at 83.4%; the “INF-γ 72 hr, pg/ml, Donor 19 (HCMV-peptide stimulated PBMCs)” value was determined as 4940 pg/mL. Further, in assay [2], the “TNF-α 72 hr, Fold change, Average” value was found to be 0.54 fold; the “TNF-α 72 hr, Fold change, Donor 19” value was 0.54 fold; the “TNF-α 72 hr, Fold change, as %” value turned out to be 53.7%; the “TNF-α 72 hr, pg/ml, Donor 19 (HCMV-peptide stimulated PBMCs)” value is 417 pg/mL. The same molecule displayed a Kd in assay [3] of 2.56 nM.
